{"source": "patent US20130251731A1", "about": "“Tau Acetylation in the Pathogenesis of Alzheimers Disease and Other Related Tauopathies” (THE TRUSTEES OF THE UNIVERSITY OF PENNSYLVANIA, priority 2012, published 2013)"}
{"biological_target": "microtubules of transfected QBI-293 cells", "test": "cell-based or functional assay", "units": {"% MT bundling from tau-expressing cells": "% bundling"}}
{"substance": "tau-4KQ acetylation mimetic (T40 K163/280/281/369Q) (from UniProt P10636 1-441)", "% MT bundling from tau-expressing cells": 7}
{"substance": "tau-4KR non-mimetic mutant (T40 K163/280/281/369R) (from UniProt P10636 1-441)", "% MT bundling from tau-expressing cells": 50}
{"substance": "tau-T40 K280Q mimetic (from UniProt P10636 1-441)", "% MT bundling from tau-expressing cells": 40}
{"substance": "wild-type tau-T40 (2N4R), not acetylated (from UniProt P10636 2-441)", "% MT bundling from tau-expressing cells": 55}
